In the DeepSol protein solubility set:

Experiment: soluble on expression in E. coli; label from the status in PepcDB or PDB records

Sequence | soluble on expression in E. coli
MNITKAFCLSIALLGASNMQAITNSDFVIQQDNTKINNYQTNRPETSKRLFVSQAVEQQIAHIKQLLTNARLAWMFENCFPNTLDTTVHFDGKDDTFVYTGDIHAMWLRDSGAQVWPYVQLANKDAELKKMLAGVIKRQFKCINIDPYANAFNMNSEGGEWMSDLTDMKPELHERKWEIDSLCYPIRLAYHYWKTTGDASIFSDEWLTAIAKVLKTFKEQQRKEDPKGPYRFQRKTERALDTMTNDGWGNPVKPVGLIASAFRPSDDATTFQFLVPSNFFAVTSLRKAAEILNTVNKKPDLAKECTTLSNEVETALKKYAVYNHPKYGKIYAFEVDGFGNQLLMDDANVPSLIALPYLGDVKVNDPIYQNTRKFVWSEDNPYFFKGTAGEGIGGPHIGYDMIWPMSIMMKAFTSQNDAEIKTCIKMLMDTDAGTGFMHESFHKNDPKNFTRSWFAWQNTLFGELILKLVNEGKVDLLNSIQLEHHHHHH | not soluble
MSLHSVKASANRFTKTSQGRSWNTGNGSPDAICFAVDKPGIVVVGFAVYGGGGIHEYELEVLVDDSEHAGDSTHSHRWTSLELVKGTYTTDDSPSDIAEIRLDKVVPLKENVKYAVRLRNYGSRTANGDGGMTTVQCPDGVTFTFSTCSLSSNGTNQTRGQIPQILYYRSEFDGDLQSQLLSKANEEDKNCSRALSVVSTVVRAAKDLLHRALAVDADEGHHHHHH | soluble
MGSDKIHHHHHHMDALVRASGLRGYPALMRDLGCDPTPLLQRYHLDEGALGSDDAMISLRAVVHLLEASAEQTRTGDLGLRLSRHQSIDVLGPLSIALQNAPTIRAAMDFAARHTFVHSPGLVYAVHKHSEFANDAAEVSIEIRLSRQPAQRQTIDLCLADIHNFTRLLAGDRYLLRAVSVPHTPVVPVSTYERFFGARVWVEQPRASLHLSRSTLAADLLGVDATLRRIAEDYIFRHFGSEQGSVSDRVRQVLRQTLGTSSHSKATVADLLALHPRTMQRRLAAEATSFEAIRDDVRRELAMRYLCETSLPLGQISLLLGLPAQSALSRACRQWYGVPPSALRKHKRAAD | not soluble
MGSDKIHHHHHHMASIDFRNKINWHRRYRSPQGVKTEHEILRIFESDRGRIINSPAIRRLQQKTQVFPLERNAAVRTRLTHSMEVQQVGRYIAKEILSRLKEQDRLEEYGLDALTGPFESIVEMACLMHDIGNPPFGHFGEAAINDWFRQRLHPEDAESQPLTHDRCVVSSLRLQEGEENLNDIRRKVRQDICHFEGNAQGIRLVHTLMRMNLTWAQVGGILKYTRPAWWRGPVPDSHRYLMKKPGYYLSEEKYIARLRKELQLAPYSRFPLTWIMEAADDISYCVADLEDAVEKRIFSVEQLYHHLYHAWCHHEKDSLFELVVGNAWEKSRANTLSRSTEDQFFMYLRVNTLNKLVPYAAQRFIDNLPQIFAGTFNQALLEDASGFSRLLELYKNVAVEHVFSHPDVEQLELQGYRVISGLLDIYQPLLSLSLNDFRELVEKERLKRFPIESRLFQKLSTRHRLAYVEVVSKLPTDSAEYPVLEYYYRCRLIQDYISGMTDLYAWDEYRRLMAVEQ | not soluble
MGSDKIHHHHHHADTASFLFDKYEDAQVLLRAGGELKSKMNYSIVVNKFYFIDPQDKQVKELANPGDILLIKIAGRTFYPESNGAGIEMLPTKPVVYVQYKATARKEAPMGAYGTRSETTAVQSYGTITSNGQSYKLEGEKIIVSNRHHVYWVEKDDKMKQFRNFKQLAKIYSKHRAEVEKYIEDNKVNFEDVDQIVKLCAYADSLK | not soluble
MTMLLDGGPQFPGLGVGSFGAPRHHEMPNREPAGMGLNPFGDSTHAAAAAAAAAAFKLSPAAAHDLSSGQSSAFTPQGSGYANALGHHHHHHHHHHHTSQVPSYGGAASAAFNSTREFLFRQRSSGLSEAASGGGQHGLFAGSASSLHAPAGIPEPPSYLLFPGLHEQGAGHPSPTGHVDNNQVHLGLRGELFGRADPYRPVASPRTDPYAAGAQFPNYSPMNMNMGVNVAAHHGPGAFFRYMRQPIKQELSCKWIDEAQLSRPKKSCDRTFSTMHELVTHVTMEHVGGPEQNNHVCYWEECPREGKSFKAKYKLVNHIRVHTGEKPFPCPFPGCGKIFARSENLKIHKRTHTGEKPFKCEFEGCDRRFANSSDRKKHMHVHTSDKPYICKVCDKSYTHPSSLRKHMKVHESQGSDSSPAASSGYESSTPPAIASANSKDTTKTPSAVQTSTSHNPGLPPNFNEWYV | soluble
VMRLVTLRSHDQYNTTIYAMDDRYRGVFGRRDVLFMNEQDMAAQGLEHGDRVDIHTALPGSALTLEDITVVAYGIAPGTVGAYYPEANVLVPLNYLDEESGTPSYKSVPVRLTLRSKEIRPLVGGR | not soluble
MGSDKIHHHHHHMKVFFVVDIKSGKVVAGKGGERESYPPITAISRLVSSDDALKVIEEIKPRFLYAADLDRIVGLGDNFSLLSKLSKRVEELIADCGFRSPEELEKLPFTPVVGTETFDITQLDRKCYVSLDFKEKFLDASGKFESWEEVVKFLNSFDLYGLIVLPIHAVGAMKPDLSVLTKTLELSEHPVMLGGGISGVEDLERLKEMGCSGVLVATAVHKGKIPLDVVRKGKF | not soluble
MASKYAVKLKTDFDNPRWIKRHKHMFDFLDINGNGKITLDEIVSKASDDICAKLEATPEQTKRHQVCVEAFFRGCGMEYGKEIAFPQFLDGWKQLATSELKKWARNEPTLIREWGDAVFDIFDKDGSGTITLDEWKAYGKISGISPSQEDCESTFRHCDLDNAGDLDVDEMTRQHLGFWYTLDPEADGLYGNGVP | soluble
MAHHHHHHMRKEEMNRNFQNASCKEDNYIKAWLKQTENPEFYKNLNDLDDQSYTNEFVKVVDFNNFNSNFINNMMEEPFGDEFSKQKKRKAYSLFYSNEIGPNNEENYDLKNIYTSFDDSDVKYLKSLDKTPSGNMKDRVKGRYKDEHMSIKKLKRENICNENNEPIFPNNIMMDNSPYYKFRHSNKKPSYGSESTNEFFNNYDFETPIKILSSKKKSYDFKNRKDNSTNTTKENSSRENVSSNNSETKRTINFSNKTDDFNDIPFNSDNEYISSPEYMDHEQNTKYINKKQREVNFLGQKLEYKVVGNVINCSKNHPQFTLF | not soluble
MHKDTHCAVVIDCWMNKLGEVNFENRPSRYPAFVEDVRKICGTKEIVFGLEDTRGFGRNLAAYLVGRKFEVKHVNPAYTSAVRLANPIIYKDDSYDAYCVARVLRDMVDTLKDAKHEDIFWTIRQMVKRRDLIVKSNVMNKNQLHSQLAYSYPSYRKFFAMIDSKSALCFWENYPSPEYIWNTIPEEIYQTIKPVHQALKIQRIHEIISMIERDGDTRKDYQPERDFIVRNIVKDIRHNKELIAEIDDELRKLIPLTGYKLHTMPGIDLVTEAQIISEIGDINRFPDSDKLARFMGLAPVQFSSAGKGKDQRCRNGNRALNAIFHFLAIQMVAVSASGKPRHPVFREYFEQKVKEGKNKPQALVCVARRLVRIIYGMMKTRTEYRPYEKVDDKN | soluble
AQDMVSPPPPIADEPLTVNTGIYLIECYSLDDKAETFKVNAFLSLSWKDRRLAFDPVRSGVRVKTYEPEAIWIPEIRFVNVENARDADVVDISVSPDGTVQYLERFSARVLSPLDGRRTESDSQTLHIYLIVRSVDTRNIVLAVDLEKVGKNDDVFLTGWDIESFTAVVKPANFALEDRLESKLDYQLRISRQGGHHHHHH | soluble
MGSDKIHHHHHHMVQSLKVILWGEEIGRLAWDARRRLSYFMYNPAFLKKGLNISPLAAPVDGARGLMPVWGEEAKIYQKLPAFLADSLPDSWGNQLFELWRQQNHLSNADITPLDKLSFIGKRGMGALEFLPEVSRERKAEKIDIKSLANLAERIFSERENARILPEESVTMQSLLTVGTSAGGRQPKAIVAINLKNGEVRSGQISGLEEFDYYLVKFGNSQYSSAELEMSYYELATMAGINMMPSKLYQVDGNNHFMTKRFDRNHGKKIHTQTLAAISPDADSYEQLITVCRKLHLPETDCYEVFRRMVFNVLANNTDDHNKNFSFVMSEDGTWRLSPAYDVTYIFDNGGFLPNEDHCMYIRAKLRNITREDVIQFAKDNGIRRPDAIIRDIVNAMKQFRTVATKYGVAEQWVGRVENTIVDRLKSWRELEEMAPEICELVINGHIIKNIRIEQAYKGNFHLLAEIDGHERKFIIGKNKEEFSLIESMGIANLSSNQLKDMVEKYFIHLKV | not soluble
MGSDKIHHHHHHMAKRKKDTMEFRFYELPQGESALVLCGESWKRVYGHDELHLHFHNLLEIGICREGDGNMYLDEDIYQYHDGDITFIPENFPHVTVSYGEVVNFWEYIFIDLRSVIEEMFPNNAAFQNDAVSTISKKAFMTNVYQSPVVAGYINSIIRETNEHKEYSQRTIKLLVQGIVIELLRKYDELPEEDNDVVKGTNMSQIATALDYMNKHYSETIKAGELSSLCNMSETHFRRLFESYINMPPMEYLNLIRVQKACELMKKTNEPMELIAQKCGFTTQSTFNRNFRKFLNTSPYQWKINPENYEHKLLNFRISALKGW | not soluble
MMYSFEANANAVKISETVSVDTGQGAKIHKFVPKNSKTYSSDLIKTVDLTHIPTGAKARINAKITASVSRAGVLAGVGKLARLGAKFSTRAVPYVGTALLAHDVYETFKEDIQARGYQYDPETDKFAKVSG | not soluble
MGSDKIHHHHHHMAGKQLLLMDGIHKRFGPLIVSAGVTLDVEENEIHALLGENGAGKTVLMSILCGVLSPNEGQIVFKGRPLKLGSPREAIKHRIGMVHQHFMLVPNLTVAENYVLGQGSPFSMIRDMRAVHARILELSDRYGLDVAPDALVSSLSVGERQRVEILKVLYHGIELLILDEPTAVLTPQETDRLLHLLRQLVADGKTVIFISHKLDEVMRVSDRVSVMRDAKVVRTVKTSETTARELARMMVGRDVLMYLPRAPLEPGRVVLSVEHLSCDGEAGLPALRDVSFEVRANEIVGIAGVSGNGQSELALALTGLLPVASGSVTLDGTQLAGLSSYEINQLPMAHIPEDRHRMGIVLPLPLTENVILQRFDKPPFSSRGLLDLNEITRQTRDLMRRFKVKASGPGDRIRNLSGGNQQKLVVGRELDRRFDFLLINQLTRGIDIGATELVMHKILEQRSAGKAILLISTELEELFTLSDRILVMYEGRLVGEIPPDRSRLEEIGLLMAGKSPLSAA | not soluble
MTELAQLQASTEQAAALLKAMSHPKRLLILCMLSGSPGTSAGELTRITGLSASATSQHLARMRDEGLINSQRDAQRILYSIKNEAVNAIIATLKNVYCP | not soluble
MHKKADQPFMKEKRGSKLTVRAMPIQSKNLQISGICDVVEFVQDSEGIELSGVSGSYKAFPVEYKRGKPKKGDEDIVQLVAQAMCLEEMLVCRIDKGYLFYNEIKHRVEVPITDALRDKVVQMAKEMHHYYENRHTPKVKTGPFCNNCSLQSICLPKLMNKRSVKRYIEGRLSELEHHHHHH | not soluble
SNIMDFNVKKLAADAGTFLSRAVQFTEEKLGQAEKTELDAHLENLLSKAECTKIWTEKIMKQTEVLLQPNPNARIEEFVYEKLDRKAPSRINNPELLGQYMIDAGTEFGPGTAYGNALIKCGETQKRIGTADRELIQTSALNFLTPLRNFIEGDYKTIAKERKLLQNKRLDLDAAKTRLKKAKAAETRNSSEQELRITQSEFDRQAEITRLLLEGISSTHAHHLRCLNDFVEAQMTYYAQCYQYMLDLQKQLGSFPSNYLSNNNQTSVTPVPSVLPNAIGSSAMASTSGLVITSPSNLSDLKECSGSRKARVLYDYDAANSTELSLLADEVITVFSVVGMDSDWLMGERGNQKGKVPITYLELLN | not soluble
MEHLGKVFREFRTSGNYSLKEAAGESCSTSQLSRFELGESDLAVSRFFEILDNIHVTIENFMDKARNFHNHEHVSMMAQIIPLYYSNDIAGFQKLQREQLEKSKSSTTPLYFELNWILLQGLICQRDASYDMKQDDLGKVADYLFKTEEWTMYELILFGNLYSFYDVDYVTRIGREVMEREEFYQEISRHKRLVLILALNCYQHCLEHSSFYNANYFEAYTEKIIDKGIKLYERNVFHYLKGFALYQKGQCKEGCKQMQEAMHIFDVLGLPEQVAYYQEHYEKFVKS | not soluble
